Earlier results, collected in PMC6515277.
Where two headings read alike, the source gives them in different places.

Tests used:
[1] = target: merlin CTD CTD (Homo sapiens) (UniProt P35240); test: ITC
[2] = target: merlin CTD CTD (Homo sapiens) (UniProt P35240); test: ITC; remark: listed apart in the source

Kd [1]: 4 µM
Kd [2]: 4 µM
Substance: merlin FERM FERM (from UniProt P35240)
